According to publication PMC7210950, “Btk SH2-kinase interface is critical for allosteric kinase activation and its targeting inhibits B-cell neoplasms” (Nature Communications, 2020):
Square brackets hold non-standard residues; d marks the D form. Ends that are not written are not given here. pY = N[C@@H](Cc1ccc(OP(=O)(O)O)cc1)C(=O)O

Tests used:
Assay in all cases: fluorescence polarisation; Btk SH2 WT and mutants at several concentrations with 1 µM FITC-labeled peptide; Tris 40 mM pH 8, 150 mM NaCl, 1 mM DTT; 1:1 binding model
Settings in all cases: both partners purified
[1] = molecular target: T1, Btk SH2 domain H364D (XLA mutation) (human, UniProt Q06187 271-383, H364D)
T1 construct: SH2 domain of human Btk with the XLA patient mutation H364D; Same limits as m1; source: E. coli Bl21(DE3), purified (Ni-NTA, TEV cleavage, SEC); not shown: His6, N-terminal, cleaved; GST, N-terminal, cleaved

[2] = molecular target: T2, Btk SH2 domain S371P (XLA mutation) (human, UniProt Q06187 271-383, S371P)
T2 construct: SH2 domain of human Btk with the XLA patient mutation S371P; Same limits as m1; source: E. coli Bl21(DE3), purified (Ni-NTA, TEV cleavage, SEC); not shown: His6, N-terminal, cleaved; GST, N-terminal, cleaved

[3] = molecular target: T3, Btk SH2 domain K374N (XLA mutation) (human, UniProt Q06187 271-383, K374N)
T3 construct: SH2 domain of human Btk with the XLA patient mutation K374N; Same limits as m1; also called Btk SH2 K374N; source: E. coli Bl21(DE3), purified (Ni-NTA, TEV cleavage, SEC); not shown: His6, N-terminal, cleaved; GST, N-terminal, cleaved

[4] = molecular target: T4, Btk SH2 domain K296E (XLA mutation) (human, UniProt Q06187 271-383, K296E)
T4 construct: SH2 domain of human Btk with the XLA patient mutation K296E; Same limits as m1; source: E. coli Bl21(DE3), purified (Ni-NTA, TEV cleavage, SEC); not shown: His6, N-terminal, cleaved; GST, N-terminal, cleaved

[5] = molecular target: T5, Btk SH2 domain R372G (XLA mutation) (human, UniProt Q06187 271-383, R372G)
T5 construct: SH2 domain of human Btk with the XLA patient mutation R372G; Same limits as m1; source: E. coli Bl21(DE3), purified (Ni-NTA, TEV cleavage, SEC); not shown: His6, N-terminal, cleaved; GST, N-terminal, cleaved

[6] = molecular target: T6, Btk SH2 domain, wild-type (recombinant) (human, UniProt Q06187 271-383)
T6 construct: SH2 domain of human Bruton's tyrosine kinase (Btk); the construct is in PDB 6HTF; Construct limits are not in the text; also called Btk SH2 WT; human Btk SH2 domain; source: E. coli Bl21(DE3), purified (Ni-NTA, TEV cleavage, SEC); not shown: His6, N-terminal, cleaved; GST, N-terminal, cleaved

Measured: binding result

T2 sequence (Q06187 271-383 S371P): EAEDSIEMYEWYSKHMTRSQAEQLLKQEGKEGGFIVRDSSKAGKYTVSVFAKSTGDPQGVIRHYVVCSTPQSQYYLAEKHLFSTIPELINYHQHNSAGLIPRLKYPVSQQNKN
T1 sequence (Q06187 271-383 H364D): as the sequence (Q06187 271-383 S371P) above, with H94D, P101S counted along it
T6 sequence (Q06187 271-383): as the sequence (Q06187 271-383 S371P) above, with P101S counted along it
T5 sequence (Q06187 271-383 R372G): as the sequence (Q06187 271-383 S371P) above, with P101S, R102G counted along it
T4 sequence (Q06187 271-383 K296E): as the sequence (Q06187 271-383 S371P) above, with K26E, P101S counted along it
T3 sequence (Q06187 271-383 K374N): as the sequence (Q06187 271-383 S371P) above, with P101S, K104N counted along it

B1: FITC-labeled pY-peptide (ADNDpYIIPLPD) (peptide)
peptide: ADND[pY]IIPLPD
modifications: also: FITC label, end not given here
notes: also called fluorescently labeled pY-peptide
binds: all assays above
